Assay [1] has as its target T1, human RANK-L (human, UniProt O14788 140-317, limits assumed).
T1 construct: Soluble protein, used coated, biotinylated or labelled in ELISA, AlphaScreen, FMAT and Biacore; also called hRANK-L; soluble human RANK-L
T1 sequence (looked up): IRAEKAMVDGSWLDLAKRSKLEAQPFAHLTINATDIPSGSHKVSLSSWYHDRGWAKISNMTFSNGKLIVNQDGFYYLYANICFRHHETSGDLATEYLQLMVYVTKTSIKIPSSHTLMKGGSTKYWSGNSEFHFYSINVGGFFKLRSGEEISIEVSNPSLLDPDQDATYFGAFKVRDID
The assay can be described thus: AlphaScreen, biotin-hRANK-L / RANK-huFc beads. A general note: In Alpha technology, singlet oxygen from a donor bead excites a nearby acceptor bead.

Assay [2] has as its target T1, human RANK-L. As to the kind of experiment: FMAT, ALEXA647-hRANK-L / RANK on HEK293T cells.
For assay [3], the target named is T2, TNFα (UniProt P01375 77-233).
T2 construct: also called TNF-alpha
As to the kind of experiment: competition ELISA on human RANK-L-coated plates, 100 pM Nanobody preincubated with the ligand.

For assay [4], the target named is T3, TRAIL (UniProt P50591 114-281, limits assumed).
T3 construct: also called tumor necrosis factor-related apoptosis inducing ligand
Described as above.

The target in assay [5] is T4, mouse RANK-L (mouse, UniProt O35235 158-316, limits assumed).
T4 construct: also called murine RANK-L
T4 sequence (looked up): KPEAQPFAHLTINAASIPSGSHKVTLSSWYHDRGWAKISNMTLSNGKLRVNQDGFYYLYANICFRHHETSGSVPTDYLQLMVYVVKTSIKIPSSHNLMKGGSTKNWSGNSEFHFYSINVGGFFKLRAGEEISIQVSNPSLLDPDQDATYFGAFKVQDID
The assay is described as above.

Assay [6] concerns the target T1, human RANK-L. The assay can be described thus: AlphaScreen, biotin-hRANK-L / RANK-huFc beads. The source holds these as a separate data set.
The target of assay [7] is T1, human RANK-L. As to the kind of experiment: SPR Biacore 3000, hRANK-L on CM5, 100 nM Nanobody. As for the experimental part:
(§1) Binding kinetics of the humanized versions of Nanobodu RANL13 were also analysed by Surface Plasmon Resonance (Biacore 3000). […] Nanobody binding was assessed at one concentration (100 nM). Each Nanobody was injected for 4 minutes at a flow rate of 45 μl/min to allow binding to chip-bound antigen. Next, binding buffer without Nanobody was sent over the chip at the same flow rate to allow spontaneous dissociation of bound Nanobody.
(Surface plasmon resonance follows binding to a sensor surface in real time, without labels.)

The target of assay [8] is T1, human RANK-L. As to the kind of experiment: SPR Biacore 3000, hRANK-L on CM5, 100 nM Nanobody; only indicative (one concentration). As for the experimental part:
as §1

Assay [9] addresses T1, human RANK-L. The assay can be described thus: cell-based or functional assay.
In assay [10] the target is T4, mouse RANK-L. As to the kind of experiment: ELISA, set-up as for human RANK-L. The essentials:
(§2)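 Nanobodies at 500 nM to 160 pM in 1% casein/PBS incubated 1 h at room temperature; binding detected via anti-myc then anti-mouse-HRP with TMB, OD 450 nm.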

Assay [11] has as its target T1, human RANK-L. As to the kind of experiment: ELISA (ED50), biotin-hRANK-L on neutravidin. An outline of the steps: as §2
For orientation: ELISA stands for enzyme-linked immunosorbent assay.

Assay [12] deals with T1, human RANK-L. As to the kind of experiment: AlphaScreen, biotin-hRANK-L / RANK-huFc beads. As for the experimental part:
To this mixture, the RANK acceptor beads and the streptavidin donor beads were added and further incubated for 1 hour at room temperature. Fluorescence was measured by reading plates on the EnVision Multilabel Plate Reader (Perkin Elmer) using an excitation wavelength of 680 nm and an emission wavelength of 520 nm.
This is another data set of the same source.

Assay [13] addresses T1, human RANK-L. The assay can be described thus: AlphaScreen, biotin-hRANK-L / RANK-huFc beads. This is another data set of the same source.
Assay [14] concerns the target T1, human RANK-L. As to the kind of experiment: FMAT, ALEXA647-hRANK-L / RANK on HEK293T cells. As to the method:
HEK293T cells were transiently transfected with the plasmid expressing full length RANK using Fugene6 as described in example 3. After 24 hours aliquots of 60 μl (7.5×10³ cells) were plated into FMAT system 384-well plates (PE Biosystems, CA, US) and allowed to adhere for 24 h. After overnight adherence, culture supernatant was removed by gently tapping the plate. […] The plates were scanned after 10 hours of incubation. Cell surface fluorescence was measured by 8200 Cellular Detection System (Applied Biosystems, Foster City, Calif., US) which is a fluorescence macro-confocal, biological binding event analyzer that enables mix-and-read assays with live cells.
This is another data set of the same source.

Assay [15] has as its target T5, human RANK-L, full length, membrane-bound, expressed on HEK293T cells (human, UniProt O14788 1-317).
T5 construct: whole, on cells; also called hRANK-L
T5 sequence (looked up): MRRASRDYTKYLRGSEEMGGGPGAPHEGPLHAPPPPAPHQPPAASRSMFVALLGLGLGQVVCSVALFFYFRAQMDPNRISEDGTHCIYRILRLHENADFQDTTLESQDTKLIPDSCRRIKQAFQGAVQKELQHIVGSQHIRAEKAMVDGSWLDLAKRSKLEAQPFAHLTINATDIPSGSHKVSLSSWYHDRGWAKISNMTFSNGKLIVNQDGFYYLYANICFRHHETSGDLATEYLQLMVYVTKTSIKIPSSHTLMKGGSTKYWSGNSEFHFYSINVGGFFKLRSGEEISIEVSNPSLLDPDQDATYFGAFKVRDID
The assay can be described thus: FACS, HEK293T with human RANK-L, 16 pM Nanobody. As for the experimental part: (§3) Human embryonic kidney cells (HEK293T) were grown in Dulbecco's modified Eagles's medium supplemented with 10% fetal bovine serum (FBS), […] L-glutamine, 0.4 mM sodium pyruvate. […] After 48 hours, transfected cells were subjected to FACS analysis. […] Then cells were washed three times with FACS buffer. Bound Nanobodies were detected by subsequent incubations of a primary mouse anti Myc antibody (30 min at 4° C. (2 μg/ml)) and a second incubation with goat anti mouse-Phycoerythrin (PE) (Jackson Laboratories) for another 30 min at 4° C. Finally, after washing, the cells were resuspended in PBS+10% FBS+TO-PRO®-3 (5 nM) (Molecular Probes®, Invitrogen, Merelbeke, Belgium) and cell surface fluorescence expressed as mean PE fluorescence, was measured using flow cytometry.

Assay [16] deals with T5, human RANK-L, full length, …. The assay can be described thus: FACS, HEK293T with human RANK-L, 80 pM Nanobody. As to the method: as §3
Assay [17] has the same target. As to the kind of experiment: FACS, HEK293T with human RANK-L, 3.2 pM Nanobody. As for the experimental part:
as §3

Assay [18] has the same target. The assay can be described thus: FACS, HEK293T with human RANK-L, 400 pM Nanobody. As for the experimental part:
as §3

The target is the same in assay [19]. As to the kind of experiment: FACS, HEK293T with human RANK-L, 2000 pM Nanobody. As to the method:
as §3

For assay [20], the target named is T6, cynomolgus RANK-L, full length, membrane-bound, expressed on HEK293T cells (cynomolgus monkey, UniProt A0A7N9DBU4 1-317).
T6 construct: whole, on cells; also called cyno RANK-L
T6 sequence: T5 sequence (looked up) with A32T, F68L, G83S, D174N, S177T, I291V
The assay can be described thus: FACS, HEK293T with cynomolgus RANK-L, 400 pM Nanobody. As for the experimental part:
as §3

For assay [21], the target named is T6, cynomolgus RANK-L, full length, …. As to the kind of experiment: FACS, HEK293T with cynomolgus RANK-L, 2000 pM Nanobody. As to the method:
as §3

In assay [22] the target is T2, TNFα. As to the kind of experiment: competition ELISA on RANK-L-coated plates, 1 nM Nanobody preincubated with the ligand.
Assay [23] concerns the target T7, CD40 ligand (UniProt P29965 113-261, limits assumed).
T7 sequence (looked up): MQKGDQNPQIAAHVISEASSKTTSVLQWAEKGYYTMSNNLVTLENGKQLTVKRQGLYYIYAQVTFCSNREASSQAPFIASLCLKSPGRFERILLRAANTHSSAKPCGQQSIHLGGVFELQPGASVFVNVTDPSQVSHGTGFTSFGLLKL
The description is as above.

Assay [24] concerns the target T3, TRAIL. Described as above.

The values below come from patent US20110002929A1 (Ablynx, published 2011).

Substitutions are numbered along the chain they refer to.

T3 sequence (P50591 114-281 limits assumed): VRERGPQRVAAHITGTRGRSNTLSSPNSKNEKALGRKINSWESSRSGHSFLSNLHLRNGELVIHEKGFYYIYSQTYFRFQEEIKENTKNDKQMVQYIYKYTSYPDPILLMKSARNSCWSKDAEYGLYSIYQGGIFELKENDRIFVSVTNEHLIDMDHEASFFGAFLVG
T2 sequence (P01375 77-233 limits assumed): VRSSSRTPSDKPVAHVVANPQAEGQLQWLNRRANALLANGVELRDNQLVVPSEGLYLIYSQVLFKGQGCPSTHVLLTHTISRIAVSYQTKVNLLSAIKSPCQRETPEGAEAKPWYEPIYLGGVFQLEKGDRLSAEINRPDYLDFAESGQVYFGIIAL

B1: RANKL001p (VHH)
chain: EVQLVESGGGLVQPGGSLRLSCAASGFTFSSYPMGWFRQAPGKGREFVSSITGSGGSTYYADSVKGRFTISRDNAKNTLYLQMNSLRPEDTAVYYCAAYIRPDTYLSRDYRKYDYWGQGTLVTVSSGGGGSGGGSEVQLVESGGGLVQPGGSLRLSCAASGFTFSSYPMGWFRQAPGKGREFVSSITGSGGSTYYADSVKGRFTISRDNAKNTLYLQMNSLRPEDTAVYYCAAYIRPDTYLSRDYRKYDYWGQGTLVTVSSGGGC
modifications: PEG (3-Maleimidoproprionamide, 1,3-bis(Methoxy poly (ethylene glycol) modified 2-glycerol), Average MW 40,000) coupled after DTT reduction; the entry ends in GGGC
notes: Bivalent pegylated humanized Nanobody; also called RANKL13hum5-9GS-RANKL13hum5-PEG
Take B1: the figures for the IC50 in assay [1] and in assay [2] were 49 pM and 41 pM, respectively. Moreover, the binding result in assay [3], in assay [4] and in assay [5] was “no binding (tested: 10 nM)” throughout.

B2: RANKL13hum5 (VHH)
VHH: EVQLVESGGGLVQPGGSLRLSCAASGFTFSSYPMGWFRQAPGKGREFVSSITGSGGSTYYADSVKGRFTISRDNAKNTLYLQMNSLRPEDTAVYYCAAYIRPDTYLSRDYRKYDYWGQGTLVTVSS
As to B2, the IC50 (as a rule, the point on the concentration scale where inhibition reaches its midpoint) in [6] came to 91 pM; in assay [1], 188 pM; in assay [2] it was 137 pM. The koff (as a rule, a measure of how fast the partners let go of each other) in [7] was 0.00021 s⁻¹. Further, in assay [8], the Kd (as a rule, the free concentration of one partner at which half of the binding sites on the other are occupied at equilibrium, for simple one-to-one binding) stood at 260 pM. For the same molecule, the kon (in general, the second-order rate constant of association) in assay [8] was found to be 800000 M⁻¹ s⁻¹.

B3: RANKL15 (VHH, not shown: small tags and cut ends)
VHH: EVQLVESGGGLVQAGGSLRLSCAAAGGTFRNYVMGWFRQAPGKEREFVTAISTGGSWTGYVDSVKDRFTISRDNTKNTVYLQMASLKPEDTAVYYCAATTPATTYLPRSERQYDYWGQGTQVTVSS
Consider B3, for which the “RANK-L induced NF-kappaB activation (luciferase reporter, HEK293T cells), IC50” value in assay [9] worked out at 10000 pM. For the same molecule, the binding result in [10] is recorded as “no binding (tested: 500 nM to 160 pM)”; in [22] it was “no binding (tested: approximately 100 nM)”; in [23] it was “no binding (tested: approximately 100 nM)”; in assay [24], “no binding (tested: approximately 100 nM)”. In assay [11], a half-maximal effect (EC50) was put at 266 pM. Also, the figures for the IC50 in assay [12], in [13] and in [14] were 283 pM, 572 pM and 534 pM, respectively. The PE mean fluorescence in assay [15] amounted to 250; in assay [16], 715; in assay [17], 124; in assay [18] it was 2640; in assay [19], 7720; in assay [20], 3410. The PE mean fluorescence in [21] came to 11000.

B4: RANKL18hum6 (VHH)
VHH: EVQLVESGGGLVQPGGSLRLSCAASGRTFSRSAMGWFRQAPGKGREFVGFITGSGGTTYYADSVKGRFTISRDNAQNPVYLQMNSLRPEDTAVYYCAVYRRTYISSTYSESSEYDYWGQGTLVTVSS
As for B4, the results for the IC50 in [6], in [1] and in assay [2] were 138 pM, 87 pM and 380 pM, respectively. The koff in assay [7] came to 6.72e-05 s⁻¹. In addition, in assay [8], binding was characterised by a dissociation constant (Kd) of 160 pM. In assay [8], this molecule displayed a kon of 500000 M⁻¹ s⁻¹.
